For one assay, the target named is GST-GABARAP (UniProt O95166). The assay can be described thus: microscopy-based protein-protein interaction assay (on-bead binding, confocal). Conditions: 1 μM C53 protein; glutathione-sepharose beads with GST-GABARAP; parent: est. 1.0; read off a plot.
Assay [1] deals with GST-ATG8A (Arabidopsis thaliana) (UniProt Q8LEM4). The assay can be described thus: microscopy-based on-bead protein-protein interaction assay.
GST-ATG8A (Arabidopsis thaliana), sequence (Q8LEM4 1-117): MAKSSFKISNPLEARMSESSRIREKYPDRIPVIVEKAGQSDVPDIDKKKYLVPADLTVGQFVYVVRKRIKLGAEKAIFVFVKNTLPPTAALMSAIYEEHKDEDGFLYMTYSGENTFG

GST-GABARAP, sequence (O95166 whole entry): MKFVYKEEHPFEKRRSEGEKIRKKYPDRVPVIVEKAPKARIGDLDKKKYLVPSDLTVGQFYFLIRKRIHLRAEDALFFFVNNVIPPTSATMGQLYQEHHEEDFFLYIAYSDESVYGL

As to “mCh-AtC53, Q9FG23 IDWD274WDDI; IDWD285WDDI; IDWD333WDDI”, the response (normalized fluorescence) with GST-GABARAP was determined as 1.4.
In turn, “mCh-AtC53^cAIM (IDWD274WDDI, IDWD285WDDI, IDWD333WDDI) (natural protein)” yielded a percent more efficiently recruited than the wild type in assay [1] of 22%.
